Results reported in patent US20220175814A1.
One block for each substance: values may come before it.

Experiments:
[1] = target: PD-L1 on A431 cells (UniProt Q9NZQ7); experiment: flow cytometry on A431 cells, negative control
[2] = target: PD-L1 on RENCA HER2 cells (mouse) (UniProt Q9EP73); experiment: flow cytometry on RENCA HER2 cells, isotype control, 1 h
[3] = target: PD-L1 on A431 cells (UniProt Q9NZQ7); experiment: flow cytometry, untreated control A431 cells, stained 40 min on ice
[4] = target: PD-L1 on A431 cells (UniProt Q9NZQ7); experiment: flow cytometry, A431 cells treated 5 h with 0.125 µg/ml PEI-PEG-EGF/polyIC, stained 40 min on ice
[5] = target: PD-L1 on RENCA HER2 cells (mouse) (UniProt Q9EP73); experiment: flow cytometry, untreated RENCA HER2 cells stained with PE anti-mouse PD-L1 10F.9G2, 1 h
[6] = target: PD-L1 on RENCA HER2 cells (mouse) (UniProt Q9EP73); experiment: flow cytometry, RENCA HER2 cells treated 24 h with 1 microgram/ml polyIC/PPHA, stained with PE anti-mouse PD-L1 10F.9G2, 1 h

Chain of UniProt Q9EP73 (Q9EP73 19-290): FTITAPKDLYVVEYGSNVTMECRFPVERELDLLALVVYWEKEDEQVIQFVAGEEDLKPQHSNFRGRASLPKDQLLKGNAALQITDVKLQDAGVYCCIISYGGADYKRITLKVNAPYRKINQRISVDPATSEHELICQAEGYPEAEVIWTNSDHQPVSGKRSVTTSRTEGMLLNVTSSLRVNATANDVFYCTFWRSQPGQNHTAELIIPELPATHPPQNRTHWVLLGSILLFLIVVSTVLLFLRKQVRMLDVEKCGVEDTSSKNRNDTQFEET
Chain of UniProt Q9NZQ7 (Q9NZQ7 19-290 limits assumed): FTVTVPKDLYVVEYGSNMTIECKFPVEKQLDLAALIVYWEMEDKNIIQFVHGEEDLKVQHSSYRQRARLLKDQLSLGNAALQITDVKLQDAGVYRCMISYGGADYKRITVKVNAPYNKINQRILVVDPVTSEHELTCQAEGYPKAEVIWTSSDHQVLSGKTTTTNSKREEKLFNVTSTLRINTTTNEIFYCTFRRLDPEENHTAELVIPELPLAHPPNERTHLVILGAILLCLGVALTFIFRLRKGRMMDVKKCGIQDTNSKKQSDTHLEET

- MFI [1]: 13
Substance: Isotype control (Example 1, A431 staining) (antibody)

- median PE-A (Calculated raw values of medians using x-axis channel(s): PE-A) [2]: 3.19
Substance: Isotype control (Example 6, RENCA HER2 staining) (antibody)

- MFI [3]: 431
- MFI [4]: 751
Substance: PD-L1-PE labelled antibody (Biolegend, cat #393607)

- median PE-A (Calculated raw values of medians using x-axis channel(s): PE-A) [5]: 163
- median PE-A (Calculated raw values of medians using x-axis channel(s): PE-A) [6]: 322
Substance: phycoerythrin (PE)-conjugated anti-mouse PD-L1 antibody CD274 (PD-L1, B7-H1) [10F.9G2] Tonbo cat #50-1243-U025
